{"source": "the Human Domainome abundance scans (Beltran et al. 2025)", "parents": {"B1": {"name": "Connector enhancer of kinase suppressor of ras 2, residues 9 to 71; numbered along this chain, Q8WXI2 (parent)", "chain": "SKWSPSQVVDWMKGLDDCLQQYIKNFEREKISGDQLLRITHQELEDLGVSRIGHQELILEAVD"}}, "note": "± gives the uncertainty stated by the source.", "data": [{"variants_of": "B1", "experiment": "abundance fitness (aPCA) (normalised: wild type 0, dead -1); higher = more abundant; growth selection in yeast, the domain comes from the species named", "settings": "Homo sapiens", "values": [{"variant": "R51L", "abundance fitness": "-0.015 ± 0.026"}, {"variant": "R51D", "abundance fitness": "0.081 ± 0.043"}, {"variant": "R51V", "abundance fitness": "0.061 ± 0.029"}, {"variant": "R51T", "abundance fitness": "0.063 ± 0.027"}, {"variant": "R51A", "abundance fitness": "0.031 ± 0.026"}, {"variant": "R51I", "abundance fitness": "0.03 ± 0.03"}, {"variant": "F26I", "abundance fitness": "-0.356 ± 0.12"}, {"variant": "F26Y", "abundance fitness": "-0.908 ± 0.09"}, {"variant": "F26G", "abundance fitness": "-0.727 ± 0.035"}, {"variant": "F26Q", "abundance fitness": "-0.772 ± 0.05"}, {"variant": "F26N", "abundance fitness": "-0.893 ± 0.13"}, {"variant": "G48M", "abundance fitness": "-0.871 ± 0.091"}, {"variant": "G48V", "abundance fitness": "-1.01 ± 0.064"}, {"variant": "G48A", "abundance fitness": "-0.844 ± 0.053"}, {"variant": "G48E", "abundance fitness": "-0.692 ± 0.055"}, {"variant": "G48W", "abundance fitness": "-1.07 ± 0.071"}, {"variant": "N25Y", "abundance fitness": "-0.036 ± 0.084"}, {"variant": "N25G", "abundance fitness": "-0.139 ± 0.03"}, {"variant": "N25S", "abundance fitness": "-0.05 ± 0.028"}, {"variant": "N25F", "abundance fitness": "-0.078 ± 0.048"}, {"variant": "G53C", "abundance fitness": "-0.05 ± 0.036"}, {"variant": "G53F", "abundance fitness": "-0.079 ± 0.026"}, {"variant": "G53K", "abundance fitness": "0.077 ± 0.037"}, {"variant": "G53T", "abundance fitness": "0.042 ± 0.027"}, {"variant": "C18K", "abundance fitness": "-0.301 ± 0.047"}, {"variant": "C18I", "abundance fitness": "-0.439 ± 0.061"}, {"variant": "C18L", "abundance fitness": "-0.885 ± 0.049"}, {"variant": "C18S", "abundance fitness": "-0.024 ± 0.022"}, {"variant": "C18M", "abundance fitness": "-0.442 ± 0.042"}, {"variant": "C18D", "abundance fitness": "0.006 ± 0.043"}, {"variant": "C18R", "abundance fitness": "-0.314 ± 0.032"}, {"variant": "K30T", "abundance fitness": "-0.419 ± 0.04"}, {"variant": "K30G", "abundance fitness": "-0.048 ± 0.026"}, {"variant": "K30L", "abundance fitness": "-0.225 ± 0.028"}, {"variant": "K30F", "abundance fitness": "-0.324 ± 0.04"}, {"variant": "L36W", "abundance fitness": "-1.04 ± 0.12"}, {"variant": "L36A", "abundance fitness": "-0.958 ± 0.056"}, {"variant": "L36T", "abundance fitness": "-0.88 ± 0.06"}, {"variant": "L36Y", "abundance fitness": "-1.01 ± 0.086"}, {"variant": "L36N", "abundance fitness": "-0.854 ± 0.075"}, {"variant": "L36D", "abundance fitness": "-0.847 ± 0.048"}, {"variant": "M12L", "abundance fitness": "-0.188 ± 0.028"}, {"variant": "M12P", "abundance fitness": "-1 ± 0.068"}, {"variant": "M12H", "abundance fitness": "-0.766 ± 0.048"}, {"variant": "L19W", "abundance fitness": "-0.936 ± 0.06"}, {"variant": "L19E", "abundance fitness": "-0.74 ± 0.049"}, {"variant": "L19M", "abundance fitness": "-0.2 ± 0.044"}, {"variant": "L19Q", "abundance fitness": "-0.604 ± 0.047"}, {"variant": "I23Y", "abundance fitness": "-0.447 ± 0.053"}, {"variant": "I23N", "abundance fitness": "-0.475 ± 0.044"}, {"variant": "I23D", "abundance fitness": "-0.698 ± 0.07"}, {"variant": "I23R", "abundance fitness": "-0.18 ± 0.021"}, {"variant": "I23V", "abundance fitness": "-0.008 ± 0.023"}, {"variant": "I23E", "abundance fitness": "-0.412 ± 0.036"}, {"variant": "Y22T", "abundance fitness": "-0.653 ± 0.035"}, {"variant": "Y22A", "abundance fitness": "-0.863 ± 0.035"}, {"variant": "Y22E", "abundance fitness": "-0.753 ± 0.06"}, {"variant": "Y22S", "abundance fitness": "-0.742 ± 0.043"}, {"variant": "Y22H", "abundance fitness": "-0.542 ± 0.057"}, {"variant": "E29Q", "abundance fitness": "-0.005 ± 0.035"}, {"variant": "E29W", "abundance fitness": "-0.215 ± 0.03"}, {"variant": "E29R", "abundance fitness": "-0.025 ± 0.023"}, {"variant": "E29K", "abundance fitness": "0.02 ± 0.05"}, {"variant": "E29L", "abundance fitness": "-0.179 ± 0.024"}, {"variant": "D17C", "abundance fitness": "-0.06 ± 0.063"}, {"variant": "D17A", "abundance fitness": "-0.137 ± 0.025"}, {"variant": "D17M", "abundance fitness": "-0.268 ± 0.035"}, {"variant": "I31Q", "abundance fitness": "-0.87 ± 0.082"}, {"variant": "I31L", "abundance fitness": "-0.26 ± 0.03"}, {"variant": "I31N", "abundance fitness": "-0.732 ± 0.07"}, {"variant": "Q35K", "abundance fitness": "-0.054 ± 0.057"}, {"variant": "Q35F", "abundance fitness": "-0.33 ± 0.058"}, {"variant": "Q35W", "abundance fitness": "-0.523 ± 0.055"}, {"variant": "Q35D", "abundance fitness": "-0.158 ± 0.05"}, {"variant": "Q35C", "abundance fitness": "-0.328 ± 0.061"}, {"variant": "Q35S", "abundance fitness": "-0.291 ± 0.039"}, {"variant": "Q35Y", "abundance fitness": "-0.39 ± 0.074"}, {"variant": "Q35G", "abundance fitness": "-0.485 ± 0.033"}, {"variant": "Q35P", "abundance fitness": "-0.903 ± 0.074"}, {"variant": "D34T", "abundance fitness": "-0.118 ± 0.037"}, {"variant": "D34Y", "abundance fitness": "-0.12 ± 0.037"}, {"variant": "D34R", "abundance fitness": "-0.075 ± 0.021"}, {"variant": "D34H", "abundance fitness": "-0.168 ± 0.071"}, {"variant": "D46S", "abundance fitness": "-0.037 ± 0.024"}, {"variant": "D46K", "abundance fitness": "0.072 ± 0.035"}, {"variant": "D46Y", "abundance fitness": "-0.194 ± 0.04"}, {"variant": "D46V", "abundance fitness": "-0.11 ± 0.032"}, {"variant": "D46N", "abundance fitness": "-0.006 ± 0.036"}, {"variant": "L59A", "abundance fitness": "-0.653 ± 0.032"}, {"variant": "L59G", "abundance fitness": "-0.674 ± 0.032"}, {"variant": "L59Q", "abundance fitness": "-0.646 ± 0.069"}, {"variant": "L59P", "abundance fitness": "-0.608 ± 0.075"}, {"variant": "L59N", "abundance fitness": "-0.741 ± 0.074"}, {"variant": "L59T", "abundance fitness": "-0.607 ± 0.038"}, {"variant": "L59S", "abundance fitness": "-0.652 ± 0.043"}, {"variant": "L59C", "abundance fitness": "-0.557 ± 0.048"}, {"variant": "S1K", "abundance fitness": "0.015 ± 0.039"}, {"variant": "S1L", "abundance fitness": "-0.154 ± 0.036"}, {"variant": "S1V", "abundance fitness": "-0.015 ± 0.056"}, {"variant": "S1C", "abundance fitness": "-0.07 ± 0.048"}, {"variant": "S1G", "abundance fitness": "-0.134 ± 0.052"}, {"variant": "S1F", "abundance fitness": "-0.13 ± 0.058"}, {"variant": "S1D", "abundance fitness": "-0.028 ± 0.059"}, {"variant": "P5Q", "abundance fitness": "-0.315 ± 0.058"}, {"variant": "P5E", "abundance fitness": "-0.336 ± 0.042"}, {"variant": "P5D", "abundance fitness": "-0.275 ± 0.049"}, {"variant": "P5F", "abundance fitness": "-0.161 ± 0.047"}, {"variant": "P5C", "abundance fitness": "0.026 ± 0.041"}, {"variant": "P5W", "abundance fitness": "-0.095 ± 0.044"}, {"variant": "P5T", "abundance fitness": "0.043 ± 0.03"}, {"variant": "L57W", "abundance fitness": "-0.987 ± 0.066"}, {"variant": "L57K", "abundance fitness": "0.021 ± 0.049"}, {"variant": "L57P", "abundance fitness": "-0.831 ± 0.057"}, {"variant": "L57A", "abundance fitness": "-0.105 ± 0.026"}, {"variant": "L57G", "abundance fitness": "-0.635 ± 0.043"}, {"variant": "L57F", "abundance fitness": "-0.553 ± 0.036"}, {"variant": "L57H", "abundance fitness": "-0.482 ± 0.057"}, {"variant": "L57R", "abundance fitness": "-0.202 ± 0.027"}, {"variant": "L15P", "abundance fitness": "-0.712 ± 0.043"}, {"variant": "L15K", "abundance fitness": "-0.48 ± 0.032"}, {"variant": "L15S", "abundance fitness": "-0.539 ± 0.031"}, {"variant": "L15C", "abundance fitness": "-0.552 ± 0.059"}, {"variant": "E27D", "abundance fitness": "-0.248 ± 0.041"}, {"variant": "E27I", "abundance fitness": "-0.436 ± 0.17"}, {"variant": "E27P", "abundance fitness": "-0.703 ± 0.065"}, {"variant": "E27Q", "abundance fitness": "-0.101 ± 0.038"}, {"variant": "E27C", "abundance fitness": "-0.406 ± 0.038"}, {"variant": "L44V", "abundance fitness": "-0.79 ± 0.045"}, {"variant": "L44Q", "abundance fitness": "-0.932 ± 0.12"}, {"variant": "L44Y", "abundance fitness": "-0.9 ± 0.086"}, {"variant": "L44E", "abundance fitness": "-0.82 ± 0.067"}, {"variant": "L44N", "abundance fitness": "-0.87 ± 0.091"}, {"variant": "L44S", "abundance fitness": "-0.784 ± 0.039"}, {"variant": "S50F", "abundance fitness": "-0.139 ± 0.058"}, {"variant": "S50I", "abundance fitness": "-0.571 ± 0.26"}, {"variant": "S50E", "abundance fitness": "0.024 ± 0.12"}, {"variant": "S50R", "abundance fitness": "-0.05 ± 0.076"}, {"variant": "S50T", "abundance fitness": "0.039 ± 0.055"}, {"variant": "Q55W", "abundance fitness": "-1.14 ± 0.06"}, {"variant": "Q55N", "abundance fitness": "-1.01 ± 0.091"}, {"variant": "Q55C", "abundance fitness": "-0.403 ± 0.043"}, {"variant": "Q55S", "abundance fitness": "-0.57 ± 0.034"}, {"variant": "Q55V", "abundance fitness": "-0.319 ± 0.029"}, {"variant": "Q55R", "abundance fitness": "0.061 ± 0.024"}, {"variant": "Q55D", "abundance fitness": "-0.978 ± 0.093"}, {"variant": "Q55K", "abundance fitness": "-0.051 ± 0.034"}, {"variant": "S6G", "abundance fitness": "-0.052 ± 0.027"}, {"variant": "S6V", "abundance fitness": "-0.076 ± 0.025"}, {"variant": "S6R", "abundance fitness": "-0.043 ± 0.024"}, {"variant": "S6M", "abundance fitness": "-0.043 ± 0.031"}, {"variant": "S6H", "abundance fitness": "-0.04 ± 0.044"}, {"variant": "S6N", "abundance fitness": "0.016 ± 0.04"}, {"variant": "T40P", "abundance fitness": "-0.784 ± 0.05"}, {"variant": "T40M", "abundance fitness": "-0.907 ± 0.082"}, {"variant": "T40K", "abundance fitness": "-0.186 ± 0.042"}, {"variant": "T40F", "abundance fitness": "-1.21 ± 0.37"}, {"variant": "T40V", "abundance fitness": "-0.877 ± 0.04"}, {"variant": "T40C", "abundance fitness": "-0.426 ± 0.04"}, {"variant": "T40D", "abundance fitness": "-0.327 ± 0.091"}, {"variant": "S32T", "abundance fitness": "0.022 ± 0.03"}, {"variant": "S32E", "abundance fitness": "-0.341 ± 0.042"}, {"variant": "S32C", "abundance fitness": "-0.029 ± 0.047"}, {"variant": "D63P", "abundance fitness": "-0.792 ± 0.14"}, {"variant": "D63L", "abundance fitness": "-0.176 ± 0.063"}, {"variant": "D63H", "abundance fitness": "0 ± 0.045"}, {"variant": "D63N", "abundance fitness": "-0.024 ± 0.06"}, {"variant": "D63G", "abundance fitness": "0.041 ± 0.035"}]}]}
